Data as given in the RNAGym collection of RNA variant scans (doi:10.1021/acssynbio.7b00057).

B1: Pistol ribozyme (parent)
chain: GGGUCGUUGUUCCAUAAUCGCGUGGAUAUGGCACGCAAGUUUCUACCGGGCACCGUAAAUGUCCGACUGGAGCCGUUCGGGCGGCUAUAAACAGACCUCAGGCCCGAAGCGUGGCGGCACCUGCCGCCGGUGGUAAAAAAGAUCGGAAGAGCACACGUCU

Variants of: B1
Assay: aptazyme ON/OFF ratio, guanine; higher = stronger switching; co-transcriptional cleavage with and without guanine

Row | Variant | aptazyme ON/OFF ratio
1 | U7A U8G G9U C12U C13A | 1.64
2 | U7A U8G G9U U10A C12G | 1.45
3 | U7A U8G G9U U10A C12A | 1.45
4 | U7A U8G G9U U10A C12U | 1.4
5 | U7A U8G G9U U10G C12U C13A | 1.49
6 | U7A U8G G9U C12A | 1.53
7 | U7A U8G G9U C12G | 1.64
8 | U7A U8G G9U C12U | 1.62
9 | U7A U8G G9C U11G C12A C13A | 1.29
10 | U7A U8G G9C U11G C12A C13G | 1.26
11 | U7A U8G G9C U11G C12A C13U | 1.28
12 | U7A U8G G9C U10C C13U | 1.28
13 | U7A U8G G9C U10C C13A | 1.09
14 | U7A U8G G9C U10C C13G | 1.1
15 | U7A U8G G9C U10G U11G C12A C13U | 1.22
16 | U7A U8G G9C U10G U11G C12A C13G | 1.16
17 | U7A U8G G9C U10G U11G C12A C13A | 1.18
18 | U7A U8G G9U U10A C12G C13G | 1.47
19 | U7A U8G G9U U10A C12G C13A | 1.09
20 | U7A U8G G9U U10A C12G C13U | 1.36
21 | U7A U8G G9U U10C C12U | 1.66

Row | Variant | aptazyme ON/OFF ratio
22 | U7A U8G G9U U10C C12A | 1.41
23 | U7A U8G G9U U10C C12G | 1.24
24 | U7A U8G G9U U10A U11A C13A | 1.48
25 | U7A U8G G9U U10A U11A C13U | 1.39
26 | U7A U8G G9U U10A U11A C13G | 1.15
27 | U7A U8G G9U U10C U11C | 1.15
28 | U7A U8G G9U U10C U11G | 1.71
29 | U7A U8G G9U U10C U11A | 3.38
30 | U7A U8G G9C U10C U11G C12A C13U | 1.06
31 | U7A U8G G9C U10C U11G C12A C13G | 1.15
32 | U7A U8G G9C U10C U11G C12A C13A | 1.17
33 | U7A U8G G9C U11G C12G C13A | 1.1
34 | U7A U8G G9C U11G C12G C13U | 1.22
35 | U7A U8G G9C U11G C12G C13G | 1.18
36 | U7A U8G G9C U11A C13A | 1.44
37 | U7A U8G G9C U11A C13G | 1.15
38 | U7A U8G G9C U11A C13U | 1.36
39 | U7A U8G G9U U10A | 1.18
40 | U7A U8G G9U U10G | 1.47
41 | U7A U8G G9U U10C | 2.52
42 | U7A U8G G9U U10C U11C C12A C13U | 1.2

Row | Variant | aptazyme ON/OFF ratio
43 | U7A U8G G9U U10C U11C C12A C13A | 1.21
44 | U7A U8G G9U U10C U11C C12A C13G | 1.32
45 | U7A U8G G9U U10A C12U C13A | 1.32
46 | U7A U8G G9U U10A C12U C13U | 1.31
47 | U7A U8G G9U U10A C12U C13G | 1.36
48 | U7A U8G G9C U10G C12G C13U | 1.44
49 | U7A U8G G9C U10G C12G C13G | 1.17
50 | U7A U8G G9C U10G C12G C13A | 1.3
51 | U7A U8G G9C U10G U11A C12A C13U | 1.47
52 | U7A U8G G9C U10G U11A C12A C13A | 1.16
53 | U7A U8G G9C U10G U11A C12A C13G | 1.38
54 | U7A U8G G9C U10G C12U C13U | 1.38
55 | U7A U8G G9C U10G C12U C13A | 1.48
56 | U7A U8G G9C U10G C12U C13G | 1.23
57 | U7A U8G G9C U10C U11A C12A C13G | 1.1
58 | U7A U8G G9C U10C U11A C12A C13U | 1.18
59 | U7A U8G G9C U10C U11A C12A C13A | 1.17
60 | U7A U8G G9C U11C | 1.35
61 | U7A U8G G9C U11A | 2.34
62 | U7A U8G G9C U11G | 1.57
63 | U7A U8G G9C U11G C12A | 1.67

Row | Variant | aptazyme ON/OFF ratio
64 | U7A U8G G9C U11G C12U | 1.43
65 | U7A U8G G9C U11G C12G | 1.66
66 | U7A U8G G9C U10G U11G C12U C13G | 1.18
67 | U7A U8G G9C U10G U11G C12U C13U | 1.48
68 | U7A U8G G9C U10G U11G C12U C13A | 1.2
69 | U7A U8G G9C U10C C12A | 1.15
70 | U7A U8G G9C U10C C12U | 1.24
71 | U7A U8G G9C U10C C12G | 1.4
72 | U7A U8G G9U U10C U11A C12A | 1.63
73 | U7A U8G G9U U10C U11A C12U | 1.72
74 | U7A U8G G9U U10C U11A C12G | 1.61
75 | U7A U8G G9U U10C U11G C12U C13G | 1.31
76 | U7A U8G G9U U10C U11G C12U C13U | 1.53
77 | U7A U8G G9U U10C U11G C12U C13A | 1.21
78 | U7A U8G G9C U10C U11C C12G C13A | 1.29
79 | U7A U8G G9C U10C U11C C12G C13G | 1.08
80 | U7A U8G G9C U10C U11C C12G C13U | 1.07
81 | U7A U8G G9C U10G C12G | 1.15
82 | U7A U8G G9C U10G C12A | 1.27
83 | U7A U8G G9C U10G C12U | 1.44
84 | U7A U8G G9U U10G C12A C13A | 1.27
